According to patent US20040191240:

Target: recombinant full-length p21 (Santa Cruz)
Sequence (chain, as listed by the source): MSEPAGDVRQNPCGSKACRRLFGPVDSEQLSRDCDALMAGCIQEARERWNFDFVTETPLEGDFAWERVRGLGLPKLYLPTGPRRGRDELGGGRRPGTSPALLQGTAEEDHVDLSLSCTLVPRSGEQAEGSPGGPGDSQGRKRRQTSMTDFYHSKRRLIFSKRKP

B1: Rho kinase fragment (aa 1-543, Upstate Biotechnology) (protein)
chain: MSRPPPTGKMPGAPETAPGDGAGASRQRKLEALIRDPRSPINVESLLDGLNSLVLDLDFPALRKNKNIDNFLNRYEKIVKKIKGLQMKAEDYDVVKVIGRGAFGEVQLVRHKASQKVYAMKLLSKFEMIKRSDSAFFWEERDIMAFANSPWVVQLFYAFQDDRYLYMVMEYMPGGDLVNLMSNYDVPEKWAKFYTAEVVLALDAIHSMGLIHRDVKPDNMLLDKHGHLKLADFGTCMKMDETGMVHCDTAVGTPDYISPEVLKSQGGDGFYGRECDWWSVGVFLYEMLVGDTPFYADSLVGTYSKIMDHKNSLCFPEDAEISKHAKNLICAFLTDREVRLGRNGVEEIRQHPFFKNDQWHWDNIRETAAPVVPELSSDIDSSNFDDIEDDKGDVETFPIPKAFVGNQLPFIGFTYYRENLLLSDSPSCRENDSIQSRKNEESQEIQKKLYTLEEHLSNEMQAKEELEQKCKSVNTRLEKTAKELEEEITLRKSVESALRQLEREKALLQHKNAEYQRKADHEADKKRNLENDVNSLKDQLEDL
Rho-kinase activity toward S6 kinase substrate peptide ([gamma-32P]ATP, scintillation counting), in vitro: the estimated ICso value was 1.43 nM
